These results are taken from the supplement of paper PMC9112550, “Optimization of the antimicrobial peptide Bac7 by deep mutational scanning” (BMC Biology, 2022).

For the data set, the system named is Escherichia coli TOP10. The experiment in a line: shrunken log2 fold change of peptide-encoding DNA abundance (4.5 h post-induction vs induction); higher = less antimicrobial activity (less host growth inhibition). Conditions: time post-induction: 4.5 h; library: site-saturation at positions 5, 18, 19, 20.
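Note: peptides expressed intracellularly from a pBAD plasmid library in pooled LB shake-flask culture, induced with 0.3% L-arabinose, DNA abundance read by NGS, three biological replicates, DESeq2 with apeglm shrinkage.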

Consider RRIRERPPRLPRPRPRPGMMPRP, for which the “shrunken log2 fold change” value is -0.235. In the case of RRIRSRPPRLPRPRPRPRWGPRP it was 0.228.

In the case of RRIRIRPPRLPRPRPRPCVMPRP, the “shrunken log2 fold change” value is -0.106.

As for RRIRFRPPRLPRPRPRPYFYPRP, the “shrunken log2 fold change” value is -0.808. In the case of RRIRTRPPRLPRPRPRPSVLPRP it was -0.239; in that of RRIRPRPPRLPRPRPRPQQTPRP, 0.183; in that of RRIRDRPPRLPRPRPRPNPMPRP, -0.0935. In the case of RRIRPRPPRLPRPRPRPTNGPRP it was 0.191; in that of RRIRYRPPRLPRPRPRPKKIPRP, -0.483. In the case of RRIRNRPPRLPRPRPRPQPTPRP it was 0.0158; in that of RRIRFRPPRLPRPRPRPWHNPRP, 0.0654; in that of RRIRIRPPRLPRPRPRPLWTPRP, -0.339.

Consider RRIRHRPPRLPRPRPRPLIEPRP, for which the “shrunken log2 fold change” value is -0.106. In the case of RRIRSRPPRLPRPRPRPAKHPRP it was -0.0685; in that of RRIRNRPPRLPRPRPRPRSRPRP, 0.177. In the case of RRIRWRPPRLPRPRPRPKARPRP it was 0.836; in that of RRIRYRPPRLPRPRPRPWLFPRP, 0.0905; in that of RRIRCRPPRLPRPRPRPPYPPRP, -0.193. In the case of RRIRHRPPRLPRPRPRPPLIPRP it was -0.0533; in that of RRIRKRPPRLPRPRPRPDNGPRP, -0.0558; in that of RRIRFRPPRLPRPRPRPFGNPRP, 0.0348. In the case of RRIRIRPPRLPRPRPRPNDRPRP, the “shrunken log2 fold change” value was -0.0756. In the case of RRIRARPPRLPRPRPRPQCAPRP it was 0.216; in that of RRIRFRPPRLPRPRPRPLHQPRP, -0.37; in that of RRIRLRPPRLPRPRPRPFMFPRP, -0.306. In the case of RRIRDRPPRLPRPRPRPFTTPRP it was -0.132. Turning to RRIRSRPPRLPRPRPRPRSVPRP, the “shrunken log2 fold change” value is 0.0603.

Regarding RRIRSRPPRLPRPRPRPEYSPRP, the “shrunken log2 fold change” value is -0.322. For RRIRMRPPRLPRPRPRPRTIPRP, the “shrunken log2 fold change” value was 0.229. As for RRIRTRPPRLPRPRPRPLKTPRP, the “shrunken log2 fold change” value is -0.0866.

As to RRIRARPPRLPRPRPRPEEDPRP, the “shrunken log2 fold change” value worked out at 1.77. With RRIRERPPRLPRPRPRPCNAPRP, the “shrunken log2 fold change” value was -0.0483. On to RRIRNRPPRLPRPRPRPHVTPRP, for which the “shrunken log2 fold change” value is -0.357. In the case of RRIRWRPPRLPRPRPRPSRTPRP it was 0.188; in that of RRIRERPPRLPRPRPRPPTWPRP, 0.113. In the case of RRIRHRPPRLPRPRPRPMHKPRP it was 0.227; in that of RRIRARPPRLPRPRPRPRTVPRP, 0.457; in that of RRIRWRPPRLPRPRPRPLDTPRP, 0.0244. In the case of RRIRQRPPRLPRPRPRPTYMPRP it was -0.106; in that of RRIRNRPPRLPRPRPRPLPSPRP, 1.86; in that of RRIRFRPPRLPRPRPRPAWYPRP, -0.103. Take RRIRTRPPRLPRPRPRPDLQPRP: the “shrunken log2 fold change” value is -0.0382. In the case of RRIRERPPRLPRPRPRPPFEPRP it was 0.363.

As to RRIRSRPPRLPRPRPRPPSMPRP, the “shrunken log2 fold change” value was 0.13. For the sequence RRIRNRPPRLPRPRPRPVTYPRP, the “shrunken log2 fold change” value was -0.168. In the case of RRIRMRPPRLPRPRPRPEMHPRP it was 0.346.

For the sequence RRIRTRPPRLPRPRPRPGMQPRP, the “shrunken log2 fold change” value was -0.0474. In the case of RRIRARPPRLPRPRPRPHERPRP it was 0.0956; in that of RRIRRRPPRLPRPRPRPVDKPRP, 0.0213; in that of RRIRDRPPRLPRPRPRPWGVPRP, 0.0789. Regarding RRIRARPPRLPRPRPRPRRFPRP, the “shrunken log2 fold change” value turned out to be 0.603. In the case of RRIRCRPPRLPRPRPRPWAIPRP it was -0.0169; in that of RRIRVRPPRLPRPRPRPRRRPRP, 0.271; in that of RRIRYRPPRLPRPRPRPYNYPRP, -1.3. In the case of RRIRMRPPRLPRPRPRPSTCPRP it was -0.0128; in that of RRIRVRPPRLPRPRPRPVCWPRP, 0.472; in that of RRIRQRPPRLPRPRPRPFRQPRP, -0.148. With RRIRKRPPRLPRPRPRPNWCPRP, the “shrunken log2 fold change” value was -0.0436. RRIRSRPPRLPRPRPRPWSNPRP: the “shrunken log2 fold change” value is -0.0394. Turning to RRIRNRPPRLPRPRPRPSRTPRP, the “shrunken log2 fold change” value is 0.0867.

Turning to RRIRLRPPRLPRPRPRPDEQPRP, the “shrunken log2 fold change” value is -0.017.

For the sequence RRIRCRPPRLPRPRPRPVGLPRP, the “shrunken log2 fold change” value was 0.0659.

Turning to RRIRYRPPRLPRPRPRPETYPRP, the “shrunken log2 fold change” value was -0.372.

As to RRIRYRPPRLPRPRPRPSMDPRP, the “shrunken log2 fold change” value was -1.85. In the case of RRIRKRPPRLPRPRPRPCCAPRP it was 1.3. In the case of RRIRYRPPRLPRPRPRPPWWPRP it was 0.605; in that of RRIRKRPPRLPRPRPRPCINPRP, -0.162. In the case of RRIRFRPPRLPRPRPRPKQDPRP it was 0.21; in that of RRIRWRPPRLPRPRPRPIETPRP, 0.0333; in that of RRIRTRPPRLPRPRPRPLDEPRP, 0.23. Consider RRIRLRPPRLPRPRPRPNGCPRP, for which the “shrunken log2 fold change” value is 0.00888. In the case of RRIRWRPPRLPRPRPRPKWSPRP it was 0.272.

In the case of RRIRSRPPRLPRPRPRPCYWPRP, the “shrunken log2 fold change” value was -0.121. In the case of RRIRTRPPRLPRPRPRPEIEPRP it was -0.299; in that of RRIRYRPPRLPRPRPRPMVTPRP, 0.0309. For the sequence RRIRWRPPRLPRPRPRPLQHPRP, the “shrunken log2 fold change” value amounted to 0.394. In the case of RRIRERPPRLPRPRPRPDDSPRP it was -0.435. With RRIRDRPPRLPRPRPRPPGLPRP, the “shrunken log2 fold change” value is -0.317.

With RRIRSRPPRLPRPRPRPFKVPRP, the “shrunken log2 fold change” value was -0.0212. Take RRIRKRPPRLPRPRPRPSAKPRP: the “shrunken log2 fold change” value was found to be 0.397. In the case of RRIRPRPPRLPRPRPRPWSTPRP it was -0.172; in that of RRIRERPPRLPRPRPRPPVSPRP, 0.0232; in that of RRIRMRPPRLPRPRPRPSQRPRP, 0.158.

Consider RRIRCRPPRLPRPRPRPEPVPRP, for which the “shrunken log2 fold change” value was found to be 0.0937. In the case of RRIRSRPPRLPRPRPRPDMRPRP it was 0.187; in that of RRIRRRPPRLPRPRPRPYVMPRP, -0.882; in that of RRIRCRPPRLPRPRPRPALIPRP, -0.0928.

Regarding RRIRARPPRLPRPRPRPKIYPRP, the “shrunken log2 fold change” value was -0.161.

RRIRARPPRLPRPRPRPAYYPRP: the “shrunken log2 fold change” value is -0.166. RRIRRRPPRLPRPRPRPECMPRP: the “shrunken log2 fold change” value turned out to be 0.921.

In the case of RRIRHRPPRLPRPRPRPKNPPRP, the “shrunken log2 fold change” value is -0.155. In the case of RRIRLRPPRLPRPRPRPMQWPRP it was 0.0515; in that of RRIRVRPPRLPRPRPRPSVLPRP, 0.226. In the case of RRIRNRPPRLPRPRPRPNQEPRP it was -0.0316; in that of RRIRYRPPRLPRPRPRPVFIPRP, -0.929.

On to RRIRKRPPRLPRPRPRPFKMPRP, for which the “shrunken log2 fold change” value was -0.231. In the case of RRIRKRPPRLPRPRPRPFGLPRP, the “shrunken log2 fold change” value was -0.0305. In the case of RRIRNRPPRLPRPRPRPKFPPRP it was -0.0759; in that of RRIRYRPPRLPRPRPRPANAPRP, 0.00281.

For the sequence RRIRDRPPRLPRPRPRPEYHPRP, the “shrunken log2 fold change” value is -0.000207. In the case of RRIRVRPPRLPRPRPRPRGPPRP it was 0.946; in that of RRIRMRPPRLPRPRPRPHLYPRP, -0.0224; in that of RRIRLRPPRLPRPRPRPNYEPRP, -0.416. In the case of RRIRHRPPRLPRPRPRPSHGPRP it was -0.137. In the case of RRIRKRPPRLPRPRPRPKFTPRP it was 0.355; in that of RRIRKRPPRLPRPRPRPYESPRP, 0.0419; in that of RRIRARPPRLPRPRPRPSYPPRP, -0.312.

With RRIRPRPPRLPRPRPRPADEPRP, the “shrunken log2 fold change” value came to 0.0954. In the case of RRIRYRPPRLPRPRPRPRISPRP it was -0.218; in that of RRIRSRPPRLPRPRPRPPKGPRP, 0.144; in that of RRIRARPPRLPRPRPRPPVIPRP, 0.0687. Turning to RRIRTRPPRLPRPRPRPADYPRP, the “shrunken log2 fold change” value was -0.226. On to RRIRNRPPRLPRPRPRPNWTPRP, for which the “shrunken log2 fold change” value was -0.0743.

Regarding RRIRDRPPRLPRPRPRPMQIPRP, the “shrunken log2 fold change” value was 0.0565. In the case of RRIRFRPPRLPRPRPRPECFPRP it was 0.0331; in that of RRIRPRPPRLPRPRPRPYQYPRP, -0.292. In the case of RRIRDRPPRLPRPRPRPRRGPRP it was 0.365. Consider RRIRGRPPRLPRPRPRPLMTPRP, for which the “shrunken log2 fold change” value turned out to be 2.81. In the case of RRIRLRPPRLPRPRPRPCRNPRP it was -0.241; in that of RRIRGRPPRLPRPRPRPLRSPRP, 1.67; in that of RRIRHRPPRLPRPRPRPGILPRP, -0.111.

On to RRIRGRPPRLPRPRPRPNGNPRP, for which the “shrunken log2 fold change” value worked out at 0.0103. In the case of RRIRCRPPRLPRPRPRPNKRPRP, the “shrunken log2 fold change” value was -0.42. In the case of RRIRERPPRLPRPRPRPSIQPRP it was -0.0558.

Regarding RRIRIRPPRLPRPRPRPTHGPRP, the “shrunken log2 fold change” value turned out to be 0.0479.
